The results in this text go back to patent US20240115603A1 (Zymeworks, published 2024).

Bounds are passed on as bounds.

The target in assay [1] is T1, G-CSFR(Ig-CRH)E design 34, purified, tag cleaved (human, UniProt Q99062 26-331).
T1 construct: SPR protein; also called Design 34 G-CSFR(Ig-CRH)E
T1 chain: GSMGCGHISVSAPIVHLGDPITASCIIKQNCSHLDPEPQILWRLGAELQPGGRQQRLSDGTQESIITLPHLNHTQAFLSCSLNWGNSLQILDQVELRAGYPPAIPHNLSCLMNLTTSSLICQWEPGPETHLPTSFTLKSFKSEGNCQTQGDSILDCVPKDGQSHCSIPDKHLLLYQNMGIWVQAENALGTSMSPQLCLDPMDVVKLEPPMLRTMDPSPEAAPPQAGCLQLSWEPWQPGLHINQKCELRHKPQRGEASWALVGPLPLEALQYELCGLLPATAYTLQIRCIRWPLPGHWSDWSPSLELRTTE
The assay can be described thus: SPR (Biacore T200), G-CSFR(Ig-CRH)E amine-coupled, G-CSFE injected; KD relative to WT:WT control (larger = weaker).
Experimental: (§1) The SPR binding assays were carried out on a Biacore T200 instrument (GE Healthcare, Mississauga, ON, Canada) with PBS-T (PBS+0.05% (v/v) Tween 20) running buffer at a temperature of 25° C. CMS Series S sensor chip, Biacore amine coupling kit (NHS, EDC and 1 M ethanolamine), and 10 mM sodium acetate buffers were all purchased from GE Healthcare. PBS running buffer with 0.05% Tween20 (PBS-T) was purchased from Teknova Inc. (Hollister, CA).
(§2) To determine binding affinity of G-CSFE to G-CSFRE the G-CSFRE mutant was captured by standard amine coupling as described by the manufacturer (GE LifeSciences). Briefly, immediately after EDC/NHS activation, a 5 μg/mL solution of G-CSFRE in 10 mM NaOAc, pH 5.0, was injected at a flow rate of 5 μL/min until a receptor density of ˜700-900 RU was reached. The remaining active groups were quenched by a 420 s injection of 1 M ethanolamine hydrochloride-NaOH pH 8.5 at 10 μL/min. Using single-cycle kinetics, six concentrations of a two-fold dilution series of the corresponding G-CSFE mutant starting at 200 nM with a blank buffer control were sequentially injected at 25 μL/min for 300s with a 1800s dissociation phase, resulting in a set of sensorgrams with a buffer blank reference. The same sample titration was also performed on a reference cell with no variants captured. The chip was regenerated to prepare for the next injection cycle by one pulse of 10 mM glycine/HCl, pH 2.0, for 30 s at 30 μL/min.
(§3) Double-referenced sensorgrams from duplicate or triplicate repeat injections were analyzed using Biacore™ T200 Evaluation Software v3.0 and fit to the 1:1 Langmuir binding model.

Assay [2] addresses T2, WT G-CSFR(Ig-CRH), purified, tag cleaved (human, UniProt Q99062 26-331).
T2 construct: also called G-CSFRWT; wild type G-CSFR ECD
T2 chain: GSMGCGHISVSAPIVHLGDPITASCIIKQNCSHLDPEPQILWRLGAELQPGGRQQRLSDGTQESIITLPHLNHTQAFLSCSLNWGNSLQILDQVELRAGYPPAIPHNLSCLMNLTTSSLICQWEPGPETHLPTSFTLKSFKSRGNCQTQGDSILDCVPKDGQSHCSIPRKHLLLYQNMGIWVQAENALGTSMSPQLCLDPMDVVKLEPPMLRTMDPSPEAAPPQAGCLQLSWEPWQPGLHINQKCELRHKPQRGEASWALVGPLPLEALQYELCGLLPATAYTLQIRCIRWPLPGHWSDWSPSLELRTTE
The assay can be described thus: SPR (Biacore T200).

The target in assay [3] is T2, WT G-CSFR(Ig-CRH), purified, tag cleaved. The assay can be described thus: SPR (Biacore T200), WT G-CSFR(Ig-CRH) amine-coupled, G-CSFE injected; KD relative to WT:WT control (larger = weaker).
Assay [4] shares this target. The assay can be described thus: SPR (Biacore T200), WT G-CSFR(Ig-CRH) amine-coupled.
Assay [5] addresses T3, G-CSFR(Ig-CRH)E design 401, purified, tag cleaved (human, UniProt Q99062 26-331).
T3 construct: SPR protein; also called Design 401 G-CSFR(Ig-CRH)E
T3 chain: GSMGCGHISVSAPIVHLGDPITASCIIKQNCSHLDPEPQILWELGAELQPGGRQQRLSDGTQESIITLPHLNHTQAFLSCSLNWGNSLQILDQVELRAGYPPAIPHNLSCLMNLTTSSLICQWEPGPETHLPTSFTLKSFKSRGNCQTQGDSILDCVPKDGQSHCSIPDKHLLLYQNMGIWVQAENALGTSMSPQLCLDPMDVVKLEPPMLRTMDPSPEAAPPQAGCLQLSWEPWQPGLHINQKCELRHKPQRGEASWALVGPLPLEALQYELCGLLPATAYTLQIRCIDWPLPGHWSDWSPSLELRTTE
The assay can be described thus: SPR (Biacore T200), G-CSFR(Ig-CRH)E amine-coupled, G-CSFE injected; steady-state derived KD relative to steady-state WT:WT KD.
Experimental: as §2, §3
(§4) Kinetic-derived affinity constants (KD) where obtained by fitting the association and dissociation phases of the curves. […] For the cases in which the kinetic parameters could not be fit an attempt was made to derive a steady state affinity constant.

Assay [6] addresses T4, G-CSFR(Ig-CRH)E design 402, purified, tag cleaved (human, UniProt Q99062 26-331).
T4 construct: SPR protein; also called Design 402 G-CSFR(Ig-CRH)E
T4 chain: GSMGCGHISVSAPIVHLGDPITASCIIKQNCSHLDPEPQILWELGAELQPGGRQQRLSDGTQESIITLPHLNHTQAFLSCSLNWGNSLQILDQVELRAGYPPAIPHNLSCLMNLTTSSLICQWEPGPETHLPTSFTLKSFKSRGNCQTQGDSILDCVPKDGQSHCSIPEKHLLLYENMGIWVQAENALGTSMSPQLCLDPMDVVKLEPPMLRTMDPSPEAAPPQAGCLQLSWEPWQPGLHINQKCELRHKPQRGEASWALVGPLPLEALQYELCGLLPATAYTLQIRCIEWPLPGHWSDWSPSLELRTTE
Described as above.
Experimental: as §2, §3, §4

The target of assay [7] is T5, G-CSFR(Ig-CRH)E design 300, purified, tag cleaved (human, UniProt Q99062 26-331).
T5 construct: SPR protein; also called Design 300 G-CSFR(Ig-CRH)E
T5 chain: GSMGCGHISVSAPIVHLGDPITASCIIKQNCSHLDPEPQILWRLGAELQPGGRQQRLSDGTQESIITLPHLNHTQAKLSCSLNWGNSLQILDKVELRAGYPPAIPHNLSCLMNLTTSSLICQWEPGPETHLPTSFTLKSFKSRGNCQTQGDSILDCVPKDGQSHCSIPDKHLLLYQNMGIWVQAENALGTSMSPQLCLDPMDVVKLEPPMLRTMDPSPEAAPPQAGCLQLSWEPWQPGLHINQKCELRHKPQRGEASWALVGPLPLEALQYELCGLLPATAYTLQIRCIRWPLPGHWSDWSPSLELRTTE
The assay can be described thus: SPR (Biacore T200), G-CSFR(Ig-CRH)E amine-coupled, G-CSFE injected; KD relative to WT:WT control (larger = weaker).
Experimental: as §1, §2, §3

The target of assay [8] is T6, G-CSFR(Ig-CRH)E design 35, purified, tag cleaved (human, UniProt Q99062 26-331).
T6 construct: SPR protein; also called Design #35 G-CSFR(Ig-CRH)E
T6 chain: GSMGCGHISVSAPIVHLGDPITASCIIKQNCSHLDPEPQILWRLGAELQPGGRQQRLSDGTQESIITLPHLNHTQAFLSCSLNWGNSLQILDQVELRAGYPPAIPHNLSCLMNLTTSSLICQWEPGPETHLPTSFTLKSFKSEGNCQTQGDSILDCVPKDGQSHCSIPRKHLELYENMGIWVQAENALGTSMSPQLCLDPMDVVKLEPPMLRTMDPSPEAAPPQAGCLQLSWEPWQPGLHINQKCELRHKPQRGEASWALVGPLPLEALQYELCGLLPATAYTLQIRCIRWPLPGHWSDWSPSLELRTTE
The assay is described as above.
Experimental: as §1, §2, §3

The target in assay [9] is T7, G-CSFR(Ig-CRH)E design 303, purified, tag cleaved (human, UniProt Q99062 26-331).
T7 construct: SPR protein; also called Design 303 G-CSFR(Ig-CRH)E
T7 chain: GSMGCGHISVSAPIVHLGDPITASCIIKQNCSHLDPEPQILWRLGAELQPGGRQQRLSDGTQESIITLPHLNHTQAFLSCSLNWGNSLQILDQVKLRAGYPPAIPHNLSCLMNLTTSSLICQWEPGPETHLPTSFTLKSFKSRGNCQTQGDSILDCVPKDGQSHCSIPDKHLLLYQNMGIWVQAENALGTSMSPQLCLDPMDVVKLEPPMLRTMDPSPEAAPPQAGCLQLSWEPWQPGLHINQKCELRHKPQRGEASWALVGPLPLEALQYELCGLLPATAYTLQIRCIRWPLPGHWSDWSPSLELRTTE
The assay can be described thus: SPR (Biacore T200), G-CSFR(Ig-CRH)E amine-coupled, G-CSFE injected; steady-state derived KD relative to steady-state WT:WT KD.
Experimental: as §2, §3, §4

In assay [10] the target is T8, G-CSFR(Ig-CRH)E design 134 (R41E_R141E_R167D), purified, tag cleaved (human, UniProt Q99062 26-331).
T8 construct: also called Design 134 G-CSFR(Ig-CRH)E; design 137 G-CSFR(Ig-CRH)E
T8 chain: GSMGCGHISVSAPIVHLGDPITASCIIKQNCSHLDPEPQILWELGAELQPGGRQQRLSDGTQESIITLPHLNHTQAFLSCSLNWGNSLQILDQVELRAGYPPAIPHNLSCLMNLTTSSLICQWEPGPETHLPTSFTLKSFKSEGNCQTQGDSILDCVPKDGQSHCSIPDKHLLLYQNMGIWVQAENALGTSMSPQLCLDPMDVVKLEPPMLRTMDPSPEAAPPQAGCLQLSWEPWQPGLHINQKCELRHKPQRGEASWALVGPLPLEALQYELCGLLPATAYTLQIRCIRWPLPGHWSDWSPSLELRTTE
The assay can be described thus: SPR (Biacore T200), G-CSFR(Ig-CRH)E amine-coupled, G-CSFE injected; KD relative to WT:WT control (larger = weaker).
Experimental: as §1, §2, §3

The target of assay [11] is T9, G-CSFR(Ig-CRH)E design 130, purified, tag cleaved (human, UniProt Q99062 26-331).
T9 construct: SPR protein; also called Design 130 G-CSFR(Ig-CRH)E
T9 chain: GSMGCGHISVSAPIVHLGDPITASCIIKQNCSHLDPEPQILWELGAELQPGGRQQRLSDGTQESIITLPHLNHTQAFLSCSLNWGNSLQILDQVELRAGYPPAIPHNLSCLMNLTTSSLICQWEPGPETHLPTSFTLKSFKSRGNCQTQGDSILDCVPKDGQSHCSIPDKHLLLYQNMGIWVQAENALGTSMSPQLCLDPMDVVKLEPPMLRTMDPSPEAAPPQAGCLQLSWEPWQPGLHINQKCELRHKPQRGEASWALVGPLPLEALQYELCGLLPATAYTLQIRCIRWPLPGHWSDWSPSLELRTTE
The assay is described as above.
Experimental: as §1, §2, §3

B1: G-CSFE design 34, purified, tag cleaved (ligand)
chain: TPLGPASSLPQSFLLKCLEQVRKIQGDGAALQEKLCATYKLCHPEELVLLGHSLGIPWAPLSSCPSQALQLAGCLSQLHSGLFLYQGLLQALEGISPELGPTLDTLQKDVARFATTIWQQMRRLGMAPALQPTQGAMPAFASAFQRRAGGVLVASHLQSFLEVSYRVLRHLAQAAAENLYFQ
notes: also called Design 34 G-CSFE
With B1, the “KD fold change (vs WT:WT)” value in assay [1] came to 5 fold; in assay [3], 33 fold. The “fold weaker KD (vs WT:WT)” value in assay [2] is not below 20 fold.

B2: G-CSFE design 401, purified, tag cleaved (ligand)
chain: TPLGPASSLPQSFLLKCLKQVRKIQGDGAALQEKLCATYKLCHPERLVLLGHSLGIPWAPLSSCPSQALQLAGCLSQLHSGLFLYQGLLQALEGISPELGPTLDTLQKDVARFATTIWQQMEELGMAPALQPTQGAMPAFASAFQRRAGGVLVASHLQSFLEVSYRVLRHLAQAAAENLYFQ
notes: also called Design 401 G-CSFE
With B2, in [4], the binding result was “no binding”. In addition, the “KD fold change (vs WT:WT)” value in assay [5] was determined as 0.6 fold.

B3: G-CSFE design 402, purified, tag cleaved (ligand)
chain: TPLGPASSLPQSFLLKCLKQVRKIQGDGAALQEKLCATYKLCHPERLVLLGHSLGIPWAPLSSCPSQALQLAGCLSQLHSGLFLYQGLLQALEGISPELGPTLDTLQLDVAKFAKTIWQQMEELGMAPALQPTQGAMPAFASAFQRRAGGVLVASHLQSFLEVSYRVLRHLAQAAAENLYFQ
notes: also called Design 402 G-CSFE
For the molecule B3, in assay [4], the binding result is recorded as “no binding”. Further, the “KD fold change (vs WT:WT)” value in [6] stood at 0.8 fold.

B4: G-CSFE design 300, purified, tag cleaved (ligand)
chain: TPLGPASSLPQSFLLKCLEQVRKIQGDGAALQEKLCATYDDCHPEELVLLGHSLGIPWAPLSSCPSQALQLAGCLSQLHSGLFLYQGLLQALEGISPELGPTLDTLQKDVARFATTIWQQMEELGMAPALQPTQGAMPAFASAFQRRAGGVLVASHLQSFLEVSYRVLRHLAQAAAENLYFQ
notes: also called Design 300 G-CSFE
Take B4: the binding result in assay [4] is recorded as “no binding”. The “KD fold change (vs WT:WT)” value in assay [7] was determined as 194 fold.

B5: G-CSFE design 35, purified, tag cleaved (ligand)
chain: TPLGPASSLPQSFLLKCLEQVRKIQGDGAALQEKLCATYKLCHPEELVLLGHSLGIPWAPLSSCPSQALQLAGCLSQLHSGLFLYQGLLQALEGISPELGPTLDTLQLDVADFAKTIWQQMRRLGMAPALQPTQGAMPAFASAFQRRAGGVLVASHLQSFLEVSYRVLRHLAQAAAENLYFQ
notes: also called Design 35 G-CSFE
As for B5, the “KD fold change (vs WT:WT)” value in [8] was 3.3 fold; in [3], 5 fold.

B6: G-CSFE design 303, purified, tag cleaved (ligand)
chain: TPLGPASSLPQSFLLKCLEQVRKIQGDGAALQEKLCATYKLCHPEELVLLGHSLGIPWAPLSSCPSQALQLAGCLSQLHSGLFLYQGLLQALEGISPELGPTLDTLQKDVARFATTIWQQMEELGMAPALQPTQGAMPAFASAFQREAGGVLVASHLQSFLEVSYRVLRHLAQAAAENLYFQ
notes: also called Design 303 G-CSFE
As for B6, the binding result in assay [4] is reported as “no binding”. Moreover, the “KD fold change (vs WT:WT)” value in assay [9] was 2.2 fold.

B7: G-CSFE design 130 (E46R_L108K_D112R), purified, tag cleaved (ligand)
chain: TPLGPASSLPQSFLLKCLEQVRKIQGDGAALQEKLCATYKLCHPERLVLLGHSLGIPWAPLSSCPSQALQLAGCLSQLHSGLFLYQGLLQALEGISPELGPTLDTLQKDVARFATTIWQQMEELGMAPALQPTQGAMPAFASAFQRRAGGVLVASHLQSFLEVSYRVLRHLAQAAAENLYFQ
notes: also called 130 G-CSF; G-CSF137
Regarding B7, the binding result in [4] was “no binding”. Also, the results for the “KD fold change (vs WT:WT)” value in [10] and in [11] were 0.3 fold and 0.9 fold, respectively.
